Measured values from patent US20110130449.

Columns and labels:
[1] = system: AR(me2sym)TKQTARKSTGGKAPPK
[2] = system: AR(me2asym)TKQTARKSTGGKAPPK

| Substance | Jmj6 hydroxylation activity (standard assay, MALDI-TOF MS) (NPKRSRSREHRR (peptide d)) | hydroxylation of the peptide (MALDI-TOF MS), large scale (NPKRSRSREHRR (peptide d)) | hydroxylation of the peptide by Jmjd6 (peptide f) | hydroxylation of the peptide by Jmjd6 (peptide g) | activity (hydroxylation of the peptide by Jmjd6, MALDI-TOF MS) [1] | position of hydroxylation (MS/MS) (NPKRSRSREHRR (peptide d)) | activity (hydroxylation of the peptide by Jmjd6, MALDI-TOF MS) [2] |
| --- | --- | --- | --- | --- | --- | --- | --- |
| full-length Jmjd6 (recombinant) | both the truncated Jmjd6 polypeptides and full-length Jmjd6 hydroxylated peptide d | leaving the assay mixture overnight at room temperature till peptide showed complete hydroxylation | – | – | – | – | – |
| N-terminally His6-tagged human Jmjd6 (residues 1-343) | both the truncated Jmjd6 polypeptides and full-length Jmjd6 hydroxylated peptide d | – | Peptides f and g, which do not contain any lysine residues, were not hydroxylated by Jmjd6. | Peptides f and g, which do not contain any lysine residues, were not hydroxylated by Jmjd6. | Double hydroxylation no demethylation | consistent with the hydroxylation of lysine-3 in peptide d, corresponding to lysine 269 in LUC-like2 | Double hydroxylation no demethylation |
